This assay addresses T1, green fluorescent protein (GFP) peptide on H-2Kd (mouse).
T1 peptide: HYLSTQSAL
Briefly: multimer staining. The source says:
FIG. 1 is a pair of graphs showing detection of GFP-specific CD8+ T cells in founder αGFP mice generated by somatic cell nuclear transfer (“SCNT”). Cells were collected from the lymph nodes of founder αGFP mice. The cells were stained for CD8 and an anti-H-2K^d-GFP₂₀₀₋₂₀₈ pentamer. Representative FACS is shown in all 14 founders. Note that these are founder mice and thus chimeric.

B1: GFP-specific T cell receptor (αGFP TCR) of SEQ ID NOs 2 and 4 (TCR, V domains shown)
Valpha: QQKVQQSPESLSVPEGGMASFNCTSSDRNFQYFWWYRQHSGEGPKALMSIFSDGDKKEGRFTAHLNKASLHVSLHIRDSQPSDSALYFCAASHDTNAYKVIFGKGTHLHVLP
Vbeta: DPKIIQKPKYLVAVTGSEKILICEQYLGHNAMYWYRQSAKKPLEFMFSYSYQKLMDNQTASSRFQPQSSKKNHLDLQITALKPDDSATYFCASSQGAGIYNSPLYFAAGTRLTVT
Turning to B1, the binding result is “recognises”.

For the origin of these results see patent US20160219844A1 (published 2016).
